According to US20250195917A1, “SEQUENTIAL TRANSARTERIAL CHEMOEMBOLIZATION, STEREOTACTIC BODY RADIOTHERAPY, AND IMMUNOTHERAPY (START-FIT) FOR HEPATOCELLULAR CARCINOMA” (The University of Hong Kong, priority 2023, published 2025):
Read-outs that look alike come from different tables or passages of the source.

Type: in vivo
Settings: for Edema / Fatigue / Fever / Infusion-related reaction / Musculoskeletal pain / Others (Constitutional) / Weight decreased: Constitutional; for Constipation / Decreased appetite / Diarrhea / Gastritis/GI bleed / Nausea / Others (Gastrointestinal) / Stomatitis / Vomiting: Gastrointestinal; for Any adverse event: worst toxicity grade; for ALT increased / AST increased / Abdominal pain / Bilirubin raised / GGT increased: Hepatic; for Dermatitis / Hepatitis / Others immune-related: Immune-related; for Amylase increased / Anemia / Hypercreatinine / Hyperglycemia / Hypokalemia / Hyponatremia / Hypothyroidism / Leukopenia / Lipase increased / Neutropenia / Thrombocytopenia: Laboratory; for Dry skin / Others (Skin) / Pruritus / Rash, acneiform / Rash, maculopapular / Rash, urticarial: Skin
Method: All patients underwent a single treatment of conventional TACE within 28 days of study enrolment. Conventional TACE was performed by supra-selective cannulation of all the branches supplying the tumor. The emulsion was prepared by mixing iodised oil with cisplatin (1 mg/mL) in a 1:1 ratio. A maximum of 60 mL of emulsion was injected. Preparation of the emulsion was followed by embolisation with gelfoam (gelatin granules) pellets of 1 mm diameter mixed with 40 mg of gentamicin. At 28 days (plus or minus 3 days) after the completion of TACE, stereotactic body radiotherapy was delivered to all lesions. Patients were immobilised via a vacuum foam bag (Vac-Lok™; MEDTEC, IA, USA) and active breathing control to reduce liver motion. Imaging was performed on the inhale breath-hold contrast CT. Gross tumor volume was defined as a tumor focus that was visualised by contrast imaging. The clinical target volume was defined as gross tumor volume with expansion to include the area stained with iodised oil. The individualised planning target volume margins were formulated to compensate for respiratory motion and setup errors. Cone beam CT was acquired on board before each treatment. A radiation dose of 27.5-40.0 Gy in five fractions delivered daily was allowed per protocol. The prescription isodose encompassed 95% of the planning target volume. The final dose was determined such that a maximum tumoricidal dose could be delivered to tumors while respecting the tolerance dose of the organ at risk (Table 3). The radiotherapy toxicity was assessed by CTCAE; version 4.01.
All patients underwent baseline contrast-enhanced MRI of the liver and CT of the thorax. Treatment response evaluation was assessed with MRI after cycle 4, cycle 8, and cycle 12 of avelumab and every 12 weeks thereafter (plus or minus 7 days). Radiological imaging was reported using the modified Response Evaluation Criteria in Solid Tumors (mRECIST). A CT of the thorax was done every 26 weeks or at the time of radiological or clinical evidence of disease progression according to mRECIST criteria. All patients were discussed in a multidisciplinary team board meeting of surgeons specializing in liver transplantation and liver surgery, clinical oncologists, interventional radiologists, and diagnostic radiologists. This meeting was held once every 2 weeks to decide resectability and treatment failure. All patients underwent complete tumor staging to exclude distant metastasis before surgery. A board-certified radiologist conducted an independent blinded review in addition to the investigator review. Safety assessments were documented throughout the treatment period. Adverse events were graded according to the US National Cancer Institute Common Terminology Criteria for Adverse Events (CTCAE; version 4.01). The frequency, duration, and severity of adverse events were recorded.
The primary endpoint was the percentage of patients deemed to be amenable to curative treatment after conversion therapy. Amenability for curative treatment was fulfilled when one of the following criteria was met: either a sustained complete response or sustained partial response achieved for at least 2 months and if curative treatment could be performed (based on investigator's review). […] Post-hoc analyses included radiological response according to immune RECIST, correlation of clinical outcomes with BCLC stage, albumin-bilirubin score, radiological assessment criteria, biomarkers, and median time to treatment response.

avelumab
4 weeks: Median duration of dose interruption (seven patients with interruption)
two: Permanent discontinuation due to immune-related adverse events (avelumab 10 mg/kg every 2 weeks after TACE and SBRT)
9 (27%) number of patients (%): Fatigue (Grade 1-2) | Others (Constitutional) (Grade 1-2)
3 (9%) number of patients (%): Others (Gastrointestinal) (Grade 1-2) | Hepatitis (Grade 3) | Hypercreatinine (Grade 1-2)
7 (21%) number of patients (%): Infusion-related reaction (Grade 1-2) | Weight decreased (Grade 1-2) | ALT increased (Grade 1-2) | Bilirubin raised (Grade 1-2)
1 (3%) number of patients (%): Fever (Grade 1-2) | Vomiting (Grade 1-2) | Adverse event, Lead to discontinuation (Grade 3) | Adverse event, Lead to discontinuation (Grade 4) | Any adverse event (Grade 4) | Abdominal pain (Grade 1-2) | AST increased (Grade 3) | AST increased (Grade 4) | Hyperglycemia (Grade 1-2) | Neutropenia (Grade 1-2) | Pruritus (Grade 3) | Rash, maculopapular (Grade 3) | Rash, urticarial (Grade 3)
6 (18%) number of patients (%): AST increased (Grade 1-2) | Hypokalemia (Grade 1-2) | Leukopenia (Grade 1-2)
0 (0%) number of patients (%): Edema (Grade 1-2) | Musculoskeletal pain (Grade 1-2) | Edema (Grade 3) | Fatigue (Grade 3) | Fever (Grade 3) | Infusion-related reaction (Grade 3) | Musculoskeletal pain (Grade 3) | Others (Constitutional) (Grade 3) | Weight decreased (Grade 3) | Edema (Grade 4) | Fatigue (Grade 4) | Fever (Grade 4) | Infusion-related reaction (Grade 4) | Musculoskeletal pain (Grade 4) | Others (Constitutional) (Grade 4) | Weight decreased (Grade 4) | Edema (Grade 5) | Fatigue (Grade 5) | Fever (Grade 5) | Infusion-related reaction (Grade 5) | Musculoskeletal pain (Grade 5) | Others (Constitutional) (Grade 5) | Weight decreased (Grade 5) | Gastritis/GI bleed (Grade 1-2) | Stomatitis (Grade 1-2) | Constipation (Grade 3) | Decreased appetite (Grade 3) | Diarrhea (Grade 3) | Gastritis/GI bleed (Grade 3) | Nausea (Grade 3) | Others (Gastrointestinal) (Grade 3) | Stomatitis (Grade 3) | Vomiting (Grade 3) | Constipation (Grade 4) | Decreased appetite (Grade 4) | Diarrhea (Grade 4) | Gastritis/GI bleed (Grade 4) | Nausea (Grade 4) | Others (Gastrointestinal) (Grade 4) | Stomatitis (Grade 4) | Vomiting (Grade 4) | Constipation (Grade 5) | Decreased appetite (Grade 5) | Diarrhea (Grade 5) | Gastritis/GI bleed (Grade 5) | Nausea (Grade 5) | Others (Gastrointestinal) (Grade 5) | Stomatitis (Grade 5) | Vomiting (Grade 5) | Adverse event, Lead to discontinuation (Grade 1-2) | Adverse event, Lead to discontinuation (Grade 5) | Any adverse event (Grade 5) | Abdominal pain (Grade 3) | Bilirubin raised (Grade 3) | GGT increased (Grade 3) | ALT increased (Grade 4) | Abdominal pain (Grade 4) | Bilirubin raised (Grade 4) | GGT increased (Grade 4) | ALT increased (Grade 5) | AST increased (Grade 5) | Abdominal pain (Grade 5) | Bilirubin raised (Grade 5) | GGT increased (Grade 5) | Others immune-related (Grade 3) | Dermatitis (Grade 4) | Hepatitis (Grade 4) | Others immune-related (Grade 4) | Dermatitis (Grade 5) | Hepatitis (Grade 5) | Others immune-related (Grade 5) | Amylase increased (Grade 1-2) | Lipase increased (Grade 1-2) | Hypothyroidism (Grade 1-2, first listing) | Amylase increased (Grade 3) | Anemia (Grade 3) | Hypercreatinine (Grade 3) | Hyperglycemia (Grade 3) | Hypokalemia (Grade 3) | Hyponatremia (Grade 3) | Hypothyroidism (Grade 3) | Leukopenia (Grade 3) | Lipase increased (Grade 3) | Neutropenia (Grade 3) | Thrombocytopenia (Grade 3) | Hypothyroidism (Grade 3, first listing) | Amylase increased (Grade 4) | Anemia (Grade 4) | Hypercreatinine (Grade 4) | Hyperglycemia (Grade 4) | Hypokalemia (Grade 4) | Hyponatremia (Grade 4) | Hypothyroidism (Grade 4) | Leukopenia (Grade 4) | Lipase increased (Grade 4) | Neutropenia (Grade 4) | Thrombocytopenia (Grade 4) | Hypothyroidism (Grade 4, first listing) | Amylase increased (Grade 5) | Anemia (Grade 5) | Hypercreatinine (Grade 5) | Hyperglycemia (Grade 5) | Hypokalemia (Grade 5) | Hyponatremia (Grade 5) | Hypothyroidism (Grade 5) | Leukopenia (Grade 5) | Lipase increased (Grade 5) | Neutropenia (Grade 5) | Thrombocytopenia (Grade 5) | Hypothyroidism (Grade 5, first listing) | Others (Skin) (Grade 1-2) | Rash, acneiform (Grade 1-2) | Dry skin (Grade 3) | Others (Skin) (Grade 3) | Rash, acneiform (Grade 3) | Dry skin (Grade 4) | Others (Skin) (Grade 4) | Pruritus (Grade 4) | Rash, acneiform (Grade 4) | Rash, maculopapular (Grade 4) | Rash, urticarial (Grade 4) | Dry skin (Grade 5) | Others (Skin) (Grade 5) | Pruritus (Grade 5) | Rash, acneiform (Grade 5) | Rash, maculopapular (Grade 5) | Rash, urticarial (Grade 5)
27 (82%) number of patients (%): Any adverse event (Grade 1-2)
8 (24%) number of patients (%): Pruritus (Grade 1-2)
5 (15%) number of patients (%): Others immune-related (Grade 1-2) | Anemia (Grade 1-2) | Hypothyroidism (Grade 1-2)
4 (12%) number of patients (%): Decreased appetite (Grade 1-2) | Diarrhea (Grade 1-2) | Any adverse event (Grade 3) | Hyponatremia (Grade 1-2) | Thrombocytopenia (Grade 1-2)
2 (6%) number of patients (%): Constipation (Grade 1-2) | Nausea (Grade 1-2) | GGT increased (Grade 1-2) | ALT increased (Grade 3) | Dermatitis (Grade 1-2) | Hepatitis (Grade 1-2) | Dermatitis (Grade 3) | Rash, urticarial (Grade 1-2)
6 (9%) number of patients (%): Dry skin (Grade 1-2) | Rash, maculopapular (Grade 1-2)
